Measured values reported in publication PMC6304784.

Legend:
[1] = molecular target: N-terminally GFP-tagged full-length wild-type MyD88 (human) (UniProt Q99836); experiment: fluorescence correlation spectroscopy (FCS); GFP-tagged protein in the cell-free expression mixture; single diffusing species model; hydrodynamic radius normalised to sfGFP
[2] = molecular target: mCherry-tagged full-length wild-type MyD88 (human) (UniProt Q99836); experiment: two-colour single-particle coincidence spectroscopy (seeding assay); mCherry-tagged full-length MyD88 filaments spun down and sonicated ('seeds') added to GFP-tagged full-length MyD88 expressed over a range of concentrations (10 nM and above); 488 nm and 561 nm lasers; traces of 180 s
[3] = molecular target: N-terminally GFP-tagged full-length wild-type MyD88 (human) (UniProt Q99836); experiment: single-molecule fluorescence fluctuation spectroscopy (brightness B parameter, time-traces, intensity histograms); GFP-tagged protein freely diffusing in the cell-free expression mixture on a confocal microscope, 488-nm laser; dilution series of the DNA template giving 0 to about 320 nM protein; mutants compared at 150 nM; samples diluted 10 times in buffer A

Sequence of mCherry-tagged full-length wild-type MyD88 (human) (Q99836 whole entry): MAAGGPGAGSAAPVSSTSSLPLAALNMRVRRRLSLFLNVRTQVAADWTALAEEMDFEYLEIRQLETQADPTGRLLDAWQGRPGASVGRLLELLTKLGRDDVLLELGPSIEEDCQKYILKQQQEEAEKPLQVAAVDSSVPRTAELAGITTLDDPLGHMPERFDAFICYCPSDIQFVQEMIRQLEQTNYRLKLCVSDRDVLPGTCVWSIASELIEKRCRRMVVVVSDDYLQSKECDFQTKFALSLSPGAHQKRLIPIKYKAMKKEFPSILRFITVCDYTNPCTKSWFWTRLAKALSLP

## N-terminally GFP-tagged full-length wild-type MyD88 (from UniProt Q99836 1-296) (natural protein)
[1]
  stoichiometry N (monomeric units): > 100
[2]
  critical concentration for polymerisation in the presence of seeds: 10 nM
[3]
  critical concentration for aggregation (Cc): 150 nM
  stoichiometry N: > 100 proteins
